Laboratory results: PMC4346803, “Supramolecular protein assembly supports immobilization of a cytochrome P450 monooxygenase system as water-insoluble gel” (Scientific Reports, 2015)

What was measured:
[1] = molecular target: PTDH-PCNA1_(G108C)-PdR (Pseudomonas stutzeri | Sulfolobus solfataricus | Pseudomonas putida); experiment: dynamic light scattering; diameters of the PTDH-fused proteins compared with their counterparts without PTDH fusion
[2] = molecular target: PTDH-PCNA1_(G108C)-PdR (Pseudomonas stutzeri | Sulfolobus solfataricus | Pseudomonas putida); experiment: SEC; non-denatured fusion proteins, masses estimated against globular protein standards
[3] = molecular target: PTDH-PCNA3_(R112C/T180C)-P450cam (Pseudomonas stutzeri | Sulfolobus solfataricus | Pseudomonas putida); experiment: dynamic light scattering; diameters of the PTDH-fused proteins compared with their counterparts without PTDH fusion
[4] = molecular target: PTDH-PCNA3_(R112C/T180C)-P450cam (Pseudomonas stutzeri | Sulfolobus solfataricus | Pseudomonas putida); experiment: SEC; non-denatured fusion proteins, masses estimated against globular protein standards
[5] = molecular target: the molecule itself; experiment: as above

In the case of PTDH-PCNA1_(G108C)-PdR, the stoichiometry N [1] is reported as 2 and the stoichiometry N [2] is reported as 2.

PTDH-PCNA3_(R112C/T180C)-P450cam was tested, and the stoichiometry N [3] was 2 and the stoichiometry N [4] was 2.

B1: PTDH-PCNA2_(L171C)-PdX (other)
chain: MLPKLVITHRVHDEILQLLAPHCELMTNQTDSTLTREEILRRCRDAQAMMAFMPDRVDADFLQACPELRVVGCALKGFDNFDVDACTARGVWLTFVPDLLTVPTAELAIGLAVGLGRHLRAADAFVRSGEFQGWQPQFYGTGLDNATVGILGMGAIGLAMADRLQGWGATLQYHARKALDTQTEQRLGLRQVACSELFASSDFILLALPLNADTQHLVNAELLALVRPGALLVNPCRGSVVDEAAVLAALERGQLGGYAADVFEMEDWARADRPRLIDPALLAHPNTLFTPHIGSAVRAVRLEIERCAAQNIIQVLAGARPINAANRLPKAEPAACMKAKVIDAVSFSYILRTVGDFLSEANFIVTKEGIRVSGIDPSRVVFLDIFLPSSYFEGFEVSQEKEIIGFKLEDVNDILKRVLKDDTLILSSNESKLTLTFDGEFTRSFELPLIQVESTQPPSVNLEFPFKAQLLTITFADIIDELSDLGEVLNIHSKENKLYFEVIGDCSTAKVELSTDNGTLLEASGADVSSSYGMEYVANTTKMRRASDSMELYFGSQIPLKLRFKLPQEGYGDFYIAPRADSKVVYVSHDGTRRELDVADGVSLMQAAVSNGIYDIVGDCGGSASCATCHVYVNEAFTDKVPAANEREIGMLESVTAELKPNSRLSCQIIMTPELDGIVVDVPDRQW
For B1, the “stoichiometry N” value [5] was 2.
